Reference: PMC2943728

Target: DNA polymerase beta (WT pol β) (UniProt P06746 1-335)
Test: EMSA

B1: 45AG 1-nt gapped DNA (dsDNA)
DNA 1: GCCTCGCAGCCGTCCAACCAAC
DNA 2: CAACCTCGATCCAATGCCGTCC
DNA 3: GGACGGCATTGGATCGAGGTTGAGTTGGTTGGACGGCTGCGAGGC
modifications: 5'-phosphate on downstream oligo and template
Work on B1 yielded a Kd of 78 nM.
